Results reported in patent US11312760 (NEWSOARA BIOPHARMA, dated 2022).
Substitutions are numbered along the chain they refer to.

B1: Antibody 37G2 (recombinantly expressed in IgG1 form) (antibody, V domains shown)
VH: QVQLVQSGAEVKKPGSSVKVSCKASGGTFSSYAITWVRQAPGQGLEWMGGIIPIFGTANFAQKFQGRVTITADESTSTAYMELSSLRSEDTAVYYCAHLGGFADPFDYWGQGTLVTVSS
VL: EIVLTQSPATLSLSPGERATLSCRASQSVSNYLAWYQQKAGQAPRVLIYDAFNRATGIPARFSGSGSGTDFTLTISSLEPEDFAVYYCQQRSNWPPRITFGQGTRLEIK
B2: Antibody 31C2 (recombinantly expressed in IgG1 form) (antibody, V domains shown)
VH: QVQLVQSGAEVKKPGSSVKVSCKASGGTFSSYAISWVRQAPGQGLEWMGGIIPIFGTTNYAQKFQGRVTITADESTSTAYMELNSLRSEDTAVYYCAGRSAYGDKGYYFDYWGQGTLVTVSS
VL: B1 VL with Y32F, A40P, V46L, F52S, E79Q, R97Q, I98E, R105K, L106V
B3: Antibody 15A7 (recombinantly expressed in IgG1 form) (antibody, V domains shown)
VH: QVQLVQSGAEVKKPGASVKVSCKASGYTFTSYDINWVRQASGQGLEWMGWMNPNSANPGYAQKFQGRVTMTRNTSISTAFMELSSLRSDDTAVYYCARARVTIHYDILTGYYSNAFDIWGQGTMVAVSS
VL: DIQMTQSPSSLSASVGDRVTITCRASQTISSYLNWYQQKPGKAPKLLIYAASSLQSGVPSRFSGSGSGADFTLTISSLQPEDFATYYCQQSYTTFMYTFGQGTMLEIK

Molecular target: authentic SARS-CoV-2 (live virus)
Assay: cell-based or functional assay

Binder	EC50 of neutralization of live virus in Vero-E6 cells [µg/mL]
B1	1.37
B2	0.57
B3	0.61
